{
  "source": "patent US20220242932A1",
  "about": "“ULINASTATIN POLYPEPTIDES FOR TREATING DISEASES” (DiaMedica USA Inc., priority 2021, published 2022)",
  "molecules": {"B1": {"name": "DM300: recombinant ulinastatin polypeptide, UTIΔCS variant (SEQ ID NO: 2, S10A), N-linked glycan at N45 and non-natural O-linked glycan at T17 (protein, listed as Homo sapiens)", "chain": "AVLPQEEEGAGGGQLVTEVTKKEDSCQLGYSAGPCMGMTSRYFYNGTSMACETFQYGGCMGNGNNFVTEKECLQTCRTVAACNLPIVRGPCRAFIQLWAFDAVKGKCVLFPYGGCQGNGNKFYSEKECREYCGVPGDGDEELLRFSN", "modifications": "N-glycan N45, O-glycan T17"}},
  "key": {"Neutrophil elastase (NE)": {"biological_target": "Neutrophil elastase (NE) (UniProt P08246)", "test": "cell-based or functional assay"}, "neutrophil elastase": {"biological_target": "T1, neutrophil elastase (Homo sapiens, UniProt P08246)", "T1 construct": "purchased Enzo Life Sciences", "T1 sequence (P08246 30-267)": "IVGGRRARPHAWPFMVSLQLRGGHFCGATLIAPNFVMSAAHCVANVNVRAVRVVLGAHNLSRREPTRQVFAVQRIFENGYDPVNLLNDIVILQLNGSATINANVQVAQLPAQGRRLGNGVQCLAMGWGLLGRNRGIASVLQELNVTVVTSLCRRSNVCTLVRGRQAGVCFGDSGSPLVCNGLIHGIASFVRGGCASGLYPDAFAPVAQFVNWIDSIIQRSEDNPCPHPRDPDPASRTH", "test": "Neutrophil Elastase Colorimetric Drug Discovery Assay (Enzo Life Sciences), in vitro inhibition of neutrophil elastase", "type": "biochemical", "protocol": "In vitro studies were performed to test the ability of ulinastatin to inhibit neutrophil elastase (NE). The recombinant ulinastatin polypeptide (DM300) in this experiment is the UTIΔCS variant (SEQ ID NO: 2), which has an N-linked glycan at residue N45 and a non-natural O-linked glycan at residue T17 after recombinant preparation according to methods described in U.S. Provisional Application Nos. 63/108,733 and 63/021,938 (herein incorporated by reference).\nRecombinant ulinastatin (DM300) was tested for inhibition of neutrophil elastase at 8 concentrations of DM300, with triplicate measurements per compound concentration. Neutrophil elastase activity was measured using the Neutrophil Elastase Colorimetric Drug Discovery Assay (Enzo Life Sciences) as per the manufacturer's protocol. 65 μl of assay buffer was placed into the required number of wells of a 96 well, clear, half area plate and equilibrated to 37° C. Inhibitor was added to a final reaction concentration at 100, 31.6, 10, 3.16, 1, 0.316, 0.1, 0.0316, or 0 μg/mL DM300 by addition of 20 μl of 5× concentration of DM300 diluted in assay buffer, followed by 10 μl of diluted neutrophil elastase. 100 μM elastatinal was also included as a control. After 15 minutes at 37° C., 5 μl of diluted substrate was added and the plate was read in SpectraMax m5 Microplate Reader equilibrated to 37° C. Linear portions of the data were selected, and the resulting data was analyzed using GraphPad Prism V.8.2.1."}},
  "data": [
    {"molecule": "Recombinant ulinastatin polypeptide (DM300), UTIΔCS variant (from UniProt P02760 206-352)", "values": [
      {"measurement": "IC50 (inhibition of neutrophil elastase activity, colorimetric substrate assay)", "setting": "Neutrophil elastase (NE)", "value": 3.15, "unit": "µg/mL"},
      {"measurement": "IC50 (inhibition of neutrophil elastase activity, colorimetric substrate assay), molar conversion", "setting": "Neutrophil elastase (NE)", "value": 43.8, "unit": "nM"},
      {"measurement": "LogIC50 (best-fit value)", "setting": "Neutrophil elastase (NE)", "value": "0.499 log10(µg/ml)"}
    ]},
    {"molecule": "B1", "values": [
      {"measurement": "inhibitory activity in an in vitro assay of neutrophil elastase activity", "setting": "neutrophil elastase; FIG. 1", "value": "significant inhibitory activity"},
      {"measurement": "HillSlope", "setting": "neutrophil elastase; best-fit value, log(inhibitor) vs. response, variable slope (four parameters)", "value": "−1.004"},
      {"measurement": "LogIC50", "setting": "neutrophil elastase; best-fit value, log(inhibitor) vs. response, variable slope (four parameters), concentration in μg/mL", "value": 0.4987},
      {"measurement": "IC50", "setting": "neutrophil elastase; converted from 3.153 μg/ml, assuming 1 Da=1 g/mol", "value": "~43.8", "unit": "nM"}
    ]}
  ]
}
